Assays:
pThr382/pThr 383 PTEN = biological target: T1, pThr382/pThr 383 PTEN
T1 chain: EPDHYRYSDTTDSDPENE

pThr383 PTEN = biological target: T2, pThr383 PTEN
T2 chain: EPDHYRYSDTTDSDPENE

pThr382 PTEN = biological target: T3, pThr382 PTEN
T3 chain: EPDHYRYSDTTDSDPENE

[1] = biological target: T4, pSer380/pThr382/pThr 383 PTEN
T4 chain: EPDHYRYSDTTDSDPENE

pSer380 PTEN = biological target: T5, pSer380 PTEN
T5 chain: EPDHYRYSDTTDSDPENE

B1: GST (Glutathione S-Transferase)-NDRG2 fusion protein (protein)
chain: MAELQEVQITEEKPLLPGQTPEAAKTHSVETPYGSVTFTVYGTPKPKRPAILTYHDVGLNYKSCFQPLFQFEDMQEIIQNFVRVHVDAPGMEEGAPVFPLGYQYPSLDQLADMIPCVLQYLNFSTIIGVGVGAGAYILARYALNHPDTVEGLVLINIDPNAKGWMDWAAHKLTGLTSSIPEMILGHLFSQEELSGNSELIQKYRNIITHAPNLDNIELYWNSYNNRRDLNFERGGDITLRCPVMLVVGDQAPHEDAVVECNSKLDPTQTSFLKMADSGGQPQLTQPGKLTEAFKYFLQGMGYMASSCMTRLSRSRTASLTSAASVDGNRSRSRTLSQSSESGTLSSGPPGHTMEVSC
in vitro dephosphorylation of PTEN, Western blot with anti-PTEN antibodies specific to each phosphorylation (FLAG-PTEN, P60484): dephosphorylation effects were recognized in BAP used as a positive control, and in GST-NDRG2 | phosphorylation status of PTEN protein by various PTEN phosphorylation antibodies after the reaction (FLAG-PTEN, P60484): only S380, T382, and T383 are dephosphorylated by mixing with NDRG2, and S370 and S385 are not altered | dot blot phosphatase assay, detection with rabbit anti-Phospho-PTEN (Ser380/Thr382/Thr383) polyclonal antibodies (pThr382/pThr 383 PTEN): signals disappeared in the phosphorylated peptides at Thr382, Thr382/Thr383, and Ser380/Thr382/Thr383 by the reaction with NDRG2 protein | production level of the phosphoric acid groups (phosphopeptide phosphatase assay, BIOMOL GREEN) (pThr382/pThr 383 PTEN): an increase in the production level of the phosphoric acid groups in the Thr382/Thr383 peptide and Ser380/Thr382/Thr383 peptide was recognized compared to the phosphorylation of Thr382 alone | dephosphorylation of phosphorylated peptides (DOTBLOT method) (pThr383 PTEN): cannot dephosphorylate the peptide wherein only S380 or only T383 is phosphorylated | dephosphorylation activity (phosphopeptide phosphatase assay, free phosphate by BIOMOL GREEN) (pThr382 PTEN): NDRG2 showed a dephosphorylation activity against the peptide including the phosphorylation at Thr382 of PTEN | dot blot phosphatase assay, detection with rabbit anti-Phospho-PTEN (Ser380/Thr382/Thr383) polyclonal antibodies (pThr382 PTEN): signals disappeared in the phosphorylated peptides at Thr382, Thr382/Thr383, and Ser380/Thr382/Thr383 by the reaction with NDRG2 protein | dot blot phosphatase assay, detection with rabbit anti-Phospho-PTEN (Ser380/Thr382/Thr383) polyclonal antibodies [1]: signals disappeared in the phosphorylated peptides at Thr382, Thr382/Thr383, and Ser380/Thr382/Thr383 by the reaction with NDRG2 protein | dot blot phosphatase assay, detection with rabbit anti-phospho-PTEN (Ser380) polyclonal antibodies [1]: a signal disappeared in the phosphorylated peptide of Ser380/Thr382/Thr383 by the reaction with NDRG2 protein | production level of the phosphoric acid groups (phosphopeptide phosphatase assay, BIOMOL GREEN) [1]: an increase in the production level of the phosphoric acid groups in the Thr382/Thr383 peptide and Ser380/Thr382/Thr383 peptide was recognized compared to the phosphorylation of Thr382 alone | dephosphorylation of phosphorylated peptides (DOTBLOT method) (pSer380 PTEN): cannot dephosphorylate the peptide wherein only S380 or only T383 is phosphorylated

Source: US20120107299
